# The DeepSol protein solubility set
# Assay: soluble on expression in E. coli; label from the status in PepcDB or PDB records
row,Sequence,soluble on expression in E. coli
1,MVLYPLEAEVTMVTSFQDADPMGVIYHGNFFRYFEEARRVLMEKIQYGYRDMQDSGYMWPIIDTRVKYVKAIPFNHTIRITAQLTEWENRLRVDYVIYDAETNQRMCKAHTTQVAVSIEKQEMCFVSPAVFLDKVEQWHNHGLEHHHHHH,not soluble
2,MSLCELSYLNAVVMLKAQRGGNSGLYFGSMTTFITSGGLEISPAGAHIVHAESPEGELLFVSSASQYGEGNAIRGGVPIIAPWFGGLLGLDPAHGWAKRSAWDVTEHDGQIHAEYGRDGLLLDIRANSTKNGFEITLRAYNDTDEARTVQLAFHPYFKVDDVEKIEVRGLDGVDILNRLNNEVETQDGPVTFDGEFDRIALGTPVVRIFDTDRIITIEGDGHDSTVVWNPGESRASTVADIGEGEWRDFVCVEPALLGADQKGVRVAPGQSVTVGMQVSVEKRAEGHHHHHH,soluble
3,DVQINIRNNVYIPPCTINNGQNIVVDFGNINPEHVDNSRGEVTKTISISCPYKSGSLWIKVTGNTMGGGQNNVLATNITHFGIALYQGKGMSTPLTLGNGSGNGYRVTAGLDTARSTFTFTSVPFRNGSGILNGGDFRTTASMSMIYN,soluble
4,MDFLEKVLDNQVTESKELVRLYDYDLYTLGEVADRMRQNMHQKIVYFNVNRHLNPSNICADACKFCAFSAHRKNPNPYEMSLEEILEKVKNSYNKGIKEVHIVSAHNPNYSYEWYLKVFETIKQEMPNLHLKAMTAAEVHFLSVKFNKPFELVLEDMLKAGVDSMPGGGAEIFDEEIRRKICNGKVGSSRWLEIHAYWHKLGKMSNATMLFGHIENKIHRIDHMLRIKKIQSPKNQVENKEGGFNAFIPLLYQKENNYLNVEKSPSAIEILKTIAISRILLNNIPHIKAYWATLGLNLALVAQEFGANDLDGTIEIESIQSAAGAKSRHGLEKEDLIFKIKDAGFVAVERDSLYNFIQKF,not soluble
5,MAHHHHHHMTTPSSPAHPAAHLCDVTGDTAAAAAAGASGMMADTARMLSPRPSVTRTAAKTSGGPVQVALSQSCPHPHQQHQQHHQHHQHQQHHQHHQHQQHHQHHQHQQHHQHQQHQQHQQPCLGGLLDPFFLTEIDENVQAFSGTAATSGSHTSLSGDGGSPSAKDAALCSPCVECVPPARGKTVRKSRSACELRLECLLSTSMGSDITKDEADDSKRKRRQPSSFPSSSRRDTAGCFSSVEVMGPTDEVAAADEAIATTAATAADAEAGVKSRDPKRRSLLPTWVTARTSTVTRAGAPPTDSGETSRTANGCLASPRSFSLSHSKPSSGSRDTSEGSHVLDCEATLLPSESVGVVASTHSSTVSSYASEAQGRAAEEATNCATAGGATVGSKMTLLVSLIMRCTPSRRGPPHSASPTEDGAADAERLPPLELYPPLVSPSSIEEASCGVGYDVPSAHHDDMYAMKDITVAVKEDVNQRRGALAKEPTLPASTASRRTQHTKWSMHPSPVSAWLLGSSAVGASLSTALWRAALRSRPAMHTPCSCVSARAEQHSVQVLSRVLANGSAVSTKVLAMRSWAEFERASVSFPSTWSASVSAHLSAVPPSLTTDSTTLRGPSMLHLTLPPLPDQTSVGPASIAYINRAPSRPAATAEEVVARQPCDVWRLARCYAHFERAVEQRGEDGVWSARGISSLATWDSVKLVVAAGVASRDAESSTDEGCEDGGAWLLPSFTLDVVPDTLDTPSPASPQVTSTFPFSPVVSVLRAEKEEEVFTSAVMWALEMMTGVR,soluble
6,MAENKQASEGLAEDLIRSMVQTASIELHLKTLVEKRQSEMDNGLIDTNDFNRVNEQIDVLKNLKEELFEVTEQRRQDMRTLFDLFEGKGDKEQWCIVKHAAMAMYTAFEAWQASDNDRLLYQICIEKNAYFIKKITQFTGVPITECASCFSDMMKGAIDDEG,not soluble
7,MSLTDRTIGEAAELLGVTTRTLRHWDSIGLLQPSWRTTTDYRLYTEDDVERALQILIYRAAGIGLKDIAEVLDQPDSANQHLRRQRELLVEQIGQLHRMVRAVDEILGKDAISVKEKIEIFGEDLPKYQEEAFQRWGEGHHHHHH,soluble
8,MAHHHHHHMNDERVLFLTSSTCITICENQIGIDVLLKTDILHNAVILCESANPDLAFEALSIISKIAYAANHQQICILISCNVIKALKKILNNMKIKPGARARACNALGNIGCETASEVELLIKNDVFPLLVDIFQTDNDFNTKIEAAYAVCACLSKANQKQVGYIISCTATTNRLGQNICMQLIADMLELVSESDPMNNGSVKLCKSILRGLENILDKGDDETRDLSLWENPYVFMFKEVQGDIKLFQMQFFPEYYVVNKTYDILAKYFSLTSTWNNRK,not soluble
9,GPGSMEDYKAKGNDAFKAKRYQEAIDWYTKAIELDPNGEASGALYSNRAGSWQNLNNFEKAAADSEQCIRLRPDWLKGYFRLGVAMESMVKYDEAQKAFQKALQLSPGNEEGWTSCTPLILKFASAYEKTKSRSARPLKKPSNLATPS,soluble
10,MGSDKIHHHHHHMELFRLHYFLELCKVKQFTKAAENLAISQAALSKQIKILEATLGAELFNRQGQTTTLTPAGLILEKYCWRITNELVSIEEELKEINHSSNHIYVATYLCDLEYKLNDLLMTTLTDRSSNLQVHTIITENILQSLETMDADFGISFADLPLPEHIGKIDLFTANYQFILRNDHPALAKATTEEILKELTMYPFVRLNTEFSEQNKLTNWLDTTFSNFSPEKVIQVDTLSLITHLVSHSDSFAIVPEYTNIQLLDNSIHTLTYQELPKRNMAVYYLKERYMSRQLQQLLAECQKQFQ,not soluble
11,MISNIFKISAALLLLTIVSEAKPCFGRCGGRPPPPCGLPPFLEDLPSDVQTKITEIWKDYKEGDKCYEEQGLTREIMESLPKDVRKSIHKRPPLPFLRGLPKDILAKFDAIFKDKSIPFSEKPEKIDALAQEVLTGDNLKKFQEFKEKKEKEMQEYKDKESKLSAAAKVANEKLEALGKQKFAILEELDENVKDELFDLWKSRPHGPPRHH,not soluble
12,MGSDKIHHHHHHMDEVESNFLTVGTLNRYLSAKFVHDPYLKQVSLTGEIFGYKISSGSAYFELRDEDESSIRAYVSPTILRGFPFDFKSGDKVNLVADVRLYGKRAYASLFIFSMQPAGLGELYLKLAELKNKLTKEGIFNRPTKELNYFPKKIAVITSKTGAVIHDISSTIGHRNPNLKIELFESSVQGDSAVKELVSAVKKADQSDADAIIIARGGGSTLDLWPFNDEQLVRLLSSLSKPVISSIGHETDVTLTDLAADYRVETPTAAANKVTPAILDYRNNLDQLTALMSVDIKQLLQKNLNRFEYLANSPALKSFDQVFFNHEQKLQNLNLRLANSFAGEFQKNIQQFANLTAKLDALSPLKVLDRGFSLTFKGDRLIKNAQQLKEKDHIKILFAKGSALAEIKEISDDRRI,not soluble
13,MSLCLSAQRLGEEPRVNSTGRYSGPMRVLHLASEVFPFSRSGGLGDVLGALPAVQARLGEDAEVTVLSPWYASLQGEPQELWRGEAWGEQAWLGELRQDGVRYLFLGLNEFQRPGLYHPDDVERFCAFGRAALPALDAVGVTPDVLHGHDWQAGLVVAHARLRGLRTAFSVHNLQYQGRWNLHEAAGWTGLPDWTFGPDGVEFFGDLNLMKAGLNFAGHVTTVSPTYAQEITTPQYGEGLEGLLVRLTHEGRLSGILNGLDQDRWNPRTDPDIAAYSDPAGKAGAVKALRQEFGLDDAPILATVSRLADQKGMDLLITALPELVRDWNVVVLGGGDPLLEAALTGWANHPRVAFASGMNEPLAHRIYAGAHAFAMPSRFEPCGLSQLIAMRYGTLPIVRETGGLADTVPPEVGFRFADATAPAFLQACREAQAAFQDPAQWQTRATRAMSLDFSWDGPARQYLELYRGLEGHHHHHH,soluble
14,MGSDKIHHHHHHMCTVQSNITSHVKKLEEELGVILLNRHNPVTLTNAGHQLHSYAVQMIALHNKAKTIFREGDIDPNETIRLGSMETTAAIRLPQLLNECMQQHPNLPLELQTHPTGYLLNAVQQGEVDCAFVASKYVIPELYSFPVWQEQLVLVCPKQQIDFPDIATLAKTRFIAFRQGCSYRHAIELFLNDHSVPPSQIMEMGSLDGIVSCVELGVGFALLPKSYLNKVADKVSLSCFEINTESAHFTTYLVAQPPETWGSNLKQFICFIEQQFIQKCA,not soluble
15,MRGSVSQEEVKKWAESLENLINHECGLAAFKAFLKSEYSEENIDFWISCEEYKKIKSPSKLSPKAKKIYNEFISVQATKEVNLDSCTREETSRNMLEPTITCFDEAQKKIFNLMEKDSYRRFLKSRFYLDLTNPSSCGAEKQKGAKSSADCTSLVPQCAHHHHHHP,soluble
16,MGHHHHHHSHMNNQKVVAVLLQECRALLPSELRTLIQEAKEMKWPFVPEKWQYKQAVGPEDKTNLKDVIGAGLQQLLASLRASILARDCAAAAAIVFLVDRFLYGLDVSGKLLQVAKGLHKLQPATPIAPQVVIRQARISVNSGSHPAKHSM,not soluble
17,MSDTHGKFIWVELMTPDMEAAARFYGHVVGWQTKDFGSPEMPYLVLEADGKGMGGVMELTEEHKGQGIPPNWTAYVDVDDVDATAKLFADKGGAIRRPPQDIPEIGRFAVVADPYGAVLCIMTPLPMETGGFPEDMQEKKGHVGWYELFTDNVDEAMAFYGEVFGWTKDHDFDMGEMGPYRIFAHKGKAVGGIMKRMPQVPVCHWGYYFNVDGIEDAITRVSTGGGKVVNGPMEVPGESWIVNCVDPQGAYFSLVSQKK,not soluble
18,MEQRRVTDFFARRRPGPPRIAPPKLACRTPSPARPALRAPASATSGSRKRARPPAAPGRDQARPPARRRLRLSVDEVSSPSTPEAPDIPACPSPGQKIKKSTPAAGQPPHLTSAQDQDTISELASCLQRARELGARVRALKASAQDAGESCTPEAEGRPEEPCGEKAPAYQRFHALAQPGLPGLVLPYKYQVLAEMFRSMDTIVGMLHNRSETPTFAKVQRGVQDMMRRRFEERNVGQIKTVYPASYRFRQERSVPTFKDGTRRSDYQLTIEPLLEQEADGAAPQLTASRLLQRRQIFSQKLVEHVKEHHKAFLASLSPAMVVPEDQLTRWHPRFNVDEVPDIEPAALPQPPATEKLTTAQEVLARARNLISPRMEKALSQLALRSAAPSSPGSPRPALPATPPATPPAASPSALKGVSQDLLERIRAKEAQKQLAQMTRCPEQEQRLQRLERLPELARVLRSVFVSERKPALSMEVACARMVGSCCTIMSPGEMEKHLLLLSELLPDWLSLHRIRTDTYVKLDKAADLAHITARLAHQTRAEEGL,soluble
19,MPVAKDNQFWDALMENKVAKKLIKKHKCKAKCENIDDLANRYEVSKQEVEKVFKIFQLMDDDGSGTISSSEVAKMLNELGIDVSPKVVQAVMRSSDVSGDGQIDFEEFLAAVTSKIKLSTVKADVQLMLSKIDNNPEKVVSWGIEHLMIIFCEEPLKSCYYRLALTAGCTIICGYLWF,not soluble
20,MGSDKIHHHHHHMALLTAETFRLQFNNKRRLRRPYYPRKALLCYQLTPQNGSTPTRGYFENKKKCHAEICFINEIKSMGLDETQCYQVTCYLTWSPCSSCAWELVDFIKAHDHLNLGIFASRLYYHWCKPQQKGLRLLCGSQVPVEVMGFPEFADCWENFVDHEKPLSFNPYKMLEELDKNSRAIKRRLERIKS,not soluble
21,MGSDKIHHHHHHMSNRIDHAKAAGAFISKTEHVAFHDRRLWDLREKRDAQAHGIAEWETMRELASGIKEHTLSNLSTYLEQFAAAAEANGVTVHWAATAEEHNALVHQLMSERGMTTLVKSKSMLTDECKMREYLEPRGITVMETDLGERIQQLDHQDPSHMVVPAVHKLRADVAELFGRTIGTDPKNSDIHYLAESQRMNTRPYFVREKTAGMTGCNFAVAETGTVVVCTNEGNADLSANVPPLHIASIGIEKLIPKVSDLGVFIRMLSRSALGSPITQYTSHFRAPRKGTEMHFILVDHGRSERLAMEDFWYSLKCIRCGACMNTCPVYRRSGGLSYGGTYSGPIGAIINPTFDLKRYSALPFASTLNGSCTNVCPVKINIHEQIYKWRTVIAGHHEVPFVKQEVLKMAGRLLASPTLYRATVSSMGSALRRLPNFVLYNPLNIWGKQRELPEAPKLTFHAWYKKNRGADHDNA,not soluble
